From article PMC7016264, “Redox requirements for ubiquitin-like urmylation of Ahp1, a 2-Cys peroxiredoxin from yeast” (Redox Biology, 2020) come the findings set out here.

First the molecules themselves.
B1: His-tagged Ahp1, wild-type (recombinant) [S. cerevisiae] / itself (parent)
chain: MSDLVNKKFPAGDYKFQYIAISQSDADSESCKMPQTVEWSKLISENKKVIITGAPAAFSPTCTVSHIPGYINYLDELVKEKEVDQVIVVTVDNPFANQAWAKSLGVKDTTHIKFASDPGCAFTKSIGFELAVGDGVYWSGRWAMVVENGIVTYAAKETNPGTDVTVSSVESVLAHL

Variants of B1 are the subject of the assay. In words: SEC-MALS. The note with it: with itself. (SEC sorts molecules by how far they enter the pores of the column.)
For the variant MSDLVNKKFPAGDYKFQYIAISQSDADSESCKMPQTVEWSKLISENKKVIITGAPAAASPTCTVSHIPGYINYLDELVKEKEVDQVIVVTVDNPFANQAWAKSLGVKDTTHIKFASDPGCAFTKSIGFELAVGDGVYWSGRWAMVVENGIVTYAAKETNPGTDVTVSSVESVLAHL, the screen value was 22.8 kDa.
Turning to MSDLVNKKFPAGDYKFQYIAISQSDADSESCKMPQTVEWSKLISENKKVIITGAPAAFSPTCTVSHIPGYINYLDELVKEKEVDQVIVVTVDNPAANQAWAKSLGVKDTTHIKFASDPGCAFTKSIGFELAVGDGVYWSGRWAMVVENGIVTYAAKETNPGTDVTVSSVESVLAHL, the screen value was 31.6 kDa.
As for MSDLVNKKFPAGDYKFQYIAISQSDADSESCKMPQTVEWSKLISENKKVIITGAPAAASPTCTVSHIPGYINYLDELVKEKEVDQVIVVTVDNPAANQAWAKSLGVKDTTHIKFASDPGCAFTKSIGFELAVGDGVYWSGRWAMVVENGIVTYAAKETNPGTDVTVSSVESVLAHL, the figure is 20.4 kDa.
